Source: US11976099B2, “Compositions and methods for treatment of bone associated diseases” (THE NATIONAL INSTITUTE FOR BIOTECHNOLOGY IN THE NEGEV LTD., priority 2016, dated 2024)

Key:
[1] = BS^3 chemical cross linking / SDS-PAGE dimerization assay; type: physicochemical; settings: for dimerization after BS^3 cross linking: Example 4, BS^3 up to 2500 μM, FIG. 8; for monomer/dimer bands after BS^3 cross linking: Example 11, BS^3 0-2500 μM, SDS-PAGE, FIG. 16A
Experimental: Then, Tris was added to a final concentration of 30 mM and the mixture was incubated for 15 min at room temperature. Samples were denaturized and loaded on 15% SDS-PAGE. The gels were stained with coomassie blue (InstantBlue, Expedeon, CA, USA) and visualized with MiniBis pro (DNR Bio-Imaging Systems, Jerusalem, Israel).
BS^3 crosslinking assay—Human (4 μg) and murine M-CSFWT (1 μg), M-CSFC31S (1 μg) and M-CSFC31S,M27R (2.5 μg) were incubated with different concentrations of BS^3 [bis(sulfosuccinimidyl)suberate] (ThermoFisher Scientific, MA, USA) cross linker (0, 25 μM, 100 μM, 250 μM, 500 μM, 1000 μM and 2500 μM) for 30 min at room temperature. Then, […] was added to a final concentration of 30 mM, and the mixture was incubated for 15 min at room temperature. Samples were denaturized with sample buffer, boiled, and loaded on 15% SDS-PAGE for protein separation. The gels were stained with InstantBlue staining (Expedeon, CA, USA) for 40 min, followed by two washing steps with double distilled water. The gels were visualized with MiniBis pro (DNR Bio-Imaging Systems, Jerusalem, Israel).
Experiments were conducted in order to verify that the purified variants are incapable of dimerizing. The purified variants were incubated with a cross linker reagent (BS^3 [bis(sulfosuccinimidyl)suberate]) to enhance and visualize non-covalent intermolecular interactions. Following incubation, the reactions were stopped and the samples were loaded in denaturized conditions on a protein gel.
To validate the structural and computational analysis and to verify that M-CSFC31S,M27R is indeed a monomer, several biophysical assays were conducted. First, purified murine and human M-CSFWT, M-CSFC31S and M-CSFC31S,M27R were crosslinked via lysine residues using different amounts of BS^3 reagent [bis(sulfosuccinimidyl)suberate], and the proteins sizes were evaluated using SDS-PAGE (FIG. 16A). Murine M-CSFWT served as positive control, since it has a lysine in the dimerization site (K68), which facilitates the intermolecular cross-linking of the two monomers in the dimer. […] The dimer band became more prominent at higher BS^3 concentrations. It is likely that the non-covalent dimerization allows other lysines in M-CSFC31S to come into close proximity and crosslink.

[2] = Small angle X-ray scattering (SAXS) analysis; type: physicochemical; settings: 3, 5 and 7 mg/ml
Experimental: The scattering intensity was recorded in the interval 0.012<q<0.7 Å−1. The measurements were performed under vacuum at 25° C. All three M-CSF variants were measured at concentrations of 3, 5 and 7 mg/ml. The scattering of the buffer was also measured and subtracted from the scattering of the samples. The magnitude of the scattering vector is described by the following equation: […]
Values for the radius of gyration (Rg) were derived from the small angle part of the SAXS profile (Guinier region, qRg<1.0), in PRIMUS [43]. In this region, Guinier approximation is applicable:
Rg values were also derived using in-house scripts designed to perform an automatic search for the best fitting parameters using GNOM (Svergun, D. I. (1992). J. Appl. Crystallogr. 25, 495-503). CRYSOL ([…] and Koch, M. H. J. (1995) J. Appl. Crystallogr. 28, 768-773) was used to compute the theoretical SAXS spectra based on the M-CSFWT crystal structure (PDB ID code: 3UF2). These spectra served as a reference for reconstruction of the experimental SAXS data. GASBOR (Svergun, D. I., Petoukhov, M. V. and Koch, M. H. J. (2001) Biophys. J. 80, 2946-2953) was used to reconstruct the molecular envelope based on the best GNOM fit obtained from the in-house script. Ten models were calculated for each sample and averaged using DAMAVER (Volkov, V. V. and Svergun, D. I. (2003) J. Appl. Crystallogr. 36, 860-864).
Next, the size of the M-CSF variants was evaluated in solution. M-CSFWT, M-CSFC31S and M-CSFC31S,M27R at concentrations of 0.5 mg/ml were subjected to dynamic light scattering (DLS) analysis at an angle of 90°. The peaks for the most abundant species in each sample were compared (FIG. 16B), and an estimated hydrodynamic radius was calculated from each peak. […] To confirm that the oligomeric state of M-CSFC31S,M27R is not concentration dependent, all M-CSF variants were subjected to SAXS measurements at concentrations of 3, 5 and 7 mg/ml. Of note is that the Rg values remained within a similar range for M-CSFWT and M-CSFC31S. […]

Molecule	dimerization after BS^3 cross linking [1]	monomer/dimer bands after BS^3 cross linking [1]	oligomeric state in solution [2]
M-CSFM: 158 amino acid M-CSF with cysteine at position 31 replaced by serine (SEQ ID NO: 2) (protein) EEVSEYCSHMIGSGHLQSLQRLIDSQMETSSQITFEFVDQEQLKDPVCYLKKAFLLVQDIMEDTMRFRDNTPNAIAIVQLQELSLRLKSCFTKDYEEHDKACVRTFYETPLQLLEKVKNVFNETKNLLDKDWNIFSKNCNNSFAECSSQGHERQSEGS	some dimerization interactions	mixture of monomer and dimer bands	exist as dimers in solution
5.6: bispecific M-CSFRGD variant from sort five; M-CSFM loop replaced by XXXRGDXXX motif; binds c-FMS and αvβ3 integrin (protein, left off: small tags and cut ends) EEVSEYCSHMIGSGHLQSLQRLIDTYPRGDMCSITFEFVDQEQLKDPVCYLKKAFLLVQDIMEDTMRFRDNTPNAIAIVQLQELSLRLKSCFTKDYEEHDKACVRTFYETPLQLLEKVKNVFNETKNLLDKDWNIFSKNCNNSFAECSSQGHERQSEGS	did not show any dimerization		
M-CSFC31S,M27R: M-CSF double mutant containing both C31S and M27R; monomeric, monospecific c-FMS antagonist (protein) EEVSEYCSHMIGSGHLQSLQRLIDSQRETSSQITFEFVDQEQLKDPVCYLKKAFLLVQDIMEDTMRFRDNTPNAIAIVQLQELSLRLKSCFTKDYEEHDKACVRTFYETPLQLLEKVKNVFNETKNLLDKDWNIFSKNCNNSFAECSSQGHERQSEGS		did not produce any band corresponding to a dimer	is a monomer
M-CSFWT: wild-type human M-CSF, disulfide-bond-linked homodimer which binds and activates c-FMS (protein) EEVSEYCSHMIGSGHLQSLQRLIDSQMETSCQITFEFVDQEQLKDPVCYLKKAFLLVQDIMEDTMRFRDNTPNAIAIVQLQELSLRLKSCFTKDYEEHDKACVRTFYETPLQLLEKVKNVFNETKNLLDKDWNIFSKNCNNSFAECSSQGHERQSEGS		only a faint band in a size that corresponds to a dimer	exist as dimers in solution
